B1: "Lethal(2) giant larvae protein homolog SRO7" (Saccharomyces cerevisiae), Q12038 (parent)
chain: MFGSKRLKNVKEAFKSLKGQNSETPIENSKASFKSKNSKTSTISKDAKSSSSLKIPISSNNKNKIFSLAETNKYGMSSKPIAAAFDFTQNLLAIATVTGEVHIYGQQQVEVVIKLEDRSAIKEMRFVKGIYLVVINAKDTVYVLSLYSQKVLTTVFVPGKITSIDTDASLDWMLIGLQNGSMIVYDIDRDQLSSFKLDNLQKSSFFPAARLSPIVSIQWNPRDIGTVLISYEYVTLTYSLVENEIKQSFIYELPPFAPGGDFSEKTNEKRTPKVIQSLYHPNSLHIITIHEDNSLVFWDANSGHMIMARTVFETEINVPQPDYIRDSSTNAAKISKVYWMCENNPEYTSLLISHKSISRGDNQSLTMIDLGYTPRYSITSYEGMKNYYANPKQMKIFPLPTNVPIVNILPIPRQSPYFAGCHNPGLILLILGNGEIETMLYPSGIFTDKASLFPQNLSWLRPLATTSMAASVPNKLWLGALSAAQNKDYLLKGGVRTKRQKLPAEYGTAFITGHSNGSVRIYDASHGDIQDNASFEVNLSRTLNKAKELAVDKISFAAETLELAVSIETGDVVLFKYEVNQFYSVENRPESGDLEMNFRRFSLNNTNGVLVDVRDRAPTGVRQGFMPSTAVHANKGKTSAINNSNIGFVGIAYAAGSLMLIDRRGPAIIYMENIREISGAQSACVTCIEFVIMEYGDDGYSSILMVCGTDMGEVITYKILPASGGKFDVQLMDITNVTSKGPIHKIDAFSKETKSSCLATIPKMQNLSKGLCIPGIVLITGFDDIRLITLGKSKSTHKGFKYPLAATGLSYISTVEKNNDRKNLTVIITLEINGHLRVFTIPDFKEQMSEHIPFPIAAKYITESSVLRNGDIAIRVSEFQASLFSTVKEQDTLAPVSDTLYINGIRIPYRPQVNSLQWARGTVYCTPAQLNELLGGVNRPASKYKESIIAEGSFSERSSDDNNANHPEHQYTKPTRKGRNSSYGVLRNVSRAVETRWDAVEDRFNDYATAMGETMNEAVEQTGKDVMKGALGF

The assay covers variants of B1. As to conditions: with sec9_yeast SEC9, P40357.
Chain of sec9_yeast SEC9, P40357 (P40357 whole entry): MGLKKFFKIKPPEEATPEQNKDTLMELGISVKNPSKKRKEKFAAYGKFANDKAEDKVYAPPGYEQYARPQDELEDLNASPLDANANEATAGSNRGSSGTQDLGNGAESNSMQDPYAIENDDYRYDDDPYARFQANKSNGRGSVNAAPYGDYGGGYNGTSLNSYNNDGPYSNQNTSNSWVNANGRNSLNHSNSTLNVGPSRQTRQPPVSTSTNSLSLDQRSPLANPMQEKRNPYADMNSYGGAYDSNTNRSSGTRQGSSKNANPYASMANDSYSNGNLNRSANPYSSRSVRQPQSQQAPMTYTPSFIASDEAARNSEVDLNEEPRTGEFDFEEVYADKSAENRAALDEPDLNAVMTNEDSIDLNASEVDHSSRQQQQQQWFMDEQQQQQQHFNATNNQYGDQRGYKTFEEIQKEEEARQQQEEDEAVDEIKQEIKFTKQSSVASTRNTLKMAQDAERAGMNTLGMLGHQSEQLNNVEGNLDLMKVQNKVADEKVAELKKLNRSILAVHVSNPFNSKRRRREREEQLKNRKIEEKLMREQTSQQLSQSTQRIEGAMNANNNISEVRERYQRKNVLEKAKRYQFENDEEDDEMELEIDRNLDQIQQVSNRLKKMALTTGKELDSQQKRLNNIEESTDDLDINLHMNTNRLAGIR
Consider M764A, for which the “effect of a mutation on the interaction” value is listed as “decreasing interaction strength”.
Regarding Y700A, the “effect of a mutation on the interaction” value is reported as “disrupting interaction strength”.
With E562A, the “effect of a mutation on the interaction” value is recorded as “decreasing interaction strength”.
P721A: the “effect of a mutation on the interaction” value was “disrupting interaction strength”.
For R664A, the “effect of a mutation on the interaction” value is recorded as “decreasing interaction strength”.

The values are drawn from IntAct's records for PubMed 17392788.
